This is an account of results in IntAct's records for PubMed 19270079.

The assay deals with pcd15_mouse Pcdh15 (UniProt Q99PJ1).
Sequence of pcd15_mouse Pcdh15 (Q99PJ1 whole entry): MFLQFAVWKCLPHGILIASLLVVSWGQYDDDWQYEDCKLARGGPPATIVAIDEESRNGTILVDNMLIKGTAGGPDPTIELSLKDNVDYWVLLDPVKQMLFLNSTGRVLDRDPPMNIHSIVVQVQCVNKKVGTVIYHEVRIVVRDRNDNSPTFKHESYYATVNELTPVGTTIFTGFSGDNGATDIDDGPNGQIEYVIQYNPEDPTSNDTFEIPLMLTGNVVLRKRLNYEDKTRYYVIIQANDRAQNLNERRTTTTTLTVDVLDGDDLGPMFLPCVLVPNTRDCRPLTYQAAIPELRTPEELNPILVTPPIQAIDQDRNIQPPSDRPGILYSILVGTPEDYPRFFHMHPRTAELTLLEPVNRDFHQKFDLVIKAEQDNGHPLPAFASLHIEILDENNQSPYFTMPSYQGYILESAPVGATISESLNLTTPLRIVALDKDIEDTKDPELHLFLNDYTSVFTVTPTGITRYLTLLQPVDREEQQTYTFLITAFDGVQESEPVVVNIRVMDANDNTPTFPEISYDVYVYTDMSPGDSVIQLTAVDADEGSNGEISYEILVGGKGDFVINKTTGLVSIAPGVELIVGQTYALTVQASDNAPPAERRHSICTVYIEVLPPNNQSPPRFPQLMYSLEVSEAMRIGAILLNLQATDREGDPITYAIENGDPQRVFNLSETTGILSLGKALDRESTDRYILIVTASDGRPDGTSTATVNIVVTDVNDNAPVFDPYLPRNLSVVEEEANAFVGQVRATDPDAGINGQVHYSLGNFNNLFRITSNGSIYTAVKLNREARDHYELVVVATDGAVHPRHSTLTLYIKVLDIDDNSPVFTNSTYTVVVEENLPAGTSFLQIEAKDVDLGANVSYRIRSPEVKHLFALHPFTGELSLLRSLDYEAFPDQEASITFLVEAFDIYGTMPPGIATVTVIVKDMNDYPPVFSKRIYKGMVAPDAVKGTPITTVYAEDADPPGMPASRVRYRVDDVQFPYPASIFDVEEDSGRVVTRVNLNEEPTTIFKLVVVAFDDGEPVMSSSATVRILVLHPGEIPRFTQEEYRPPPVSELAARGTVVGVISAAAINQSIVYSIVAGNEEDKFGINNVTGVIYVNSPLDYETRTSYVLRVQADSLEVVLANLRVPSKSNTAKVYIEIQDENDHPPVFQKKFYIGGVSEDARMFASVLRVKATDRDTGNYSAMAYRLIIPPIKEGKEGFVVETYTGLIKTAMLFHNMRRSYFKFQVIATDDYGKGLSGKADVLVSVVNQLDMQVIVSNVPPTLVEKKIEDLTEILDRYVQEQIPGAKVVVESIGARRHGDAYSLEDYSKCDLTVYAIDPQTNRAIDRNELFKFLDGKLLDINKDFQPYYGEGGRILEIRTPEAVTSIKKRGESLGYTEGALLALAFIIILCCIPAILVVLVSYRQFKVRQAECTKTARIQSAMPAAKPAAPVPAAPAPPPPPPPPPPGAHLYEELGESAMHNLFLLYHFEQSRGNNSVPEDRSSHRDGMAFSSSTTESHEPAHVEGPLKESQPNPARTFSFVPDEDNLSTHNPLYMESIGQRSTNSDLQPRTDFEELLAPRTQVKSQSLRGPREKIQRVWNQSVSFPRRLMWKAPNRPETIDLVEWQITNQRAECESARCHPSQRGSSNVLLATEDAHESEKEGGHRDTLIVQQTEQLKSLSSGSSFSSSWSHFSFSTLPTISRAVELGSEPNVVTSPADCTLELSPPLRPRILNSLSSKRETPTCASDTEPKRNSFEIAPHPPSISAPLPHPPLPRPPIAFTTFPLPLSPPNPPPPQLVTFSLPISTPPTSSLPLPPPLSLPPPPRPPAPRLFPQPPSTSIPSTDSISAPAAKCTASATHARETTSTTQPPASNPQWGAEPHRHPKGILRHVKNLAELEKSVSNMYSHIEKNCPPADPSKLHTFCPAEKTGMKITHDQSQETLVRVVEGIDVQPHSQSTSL
“Cadherin-23 (Mus musculus), Q99PF4-1 D124G”: the “effect of a mutation on the interaction” value is “decreasing interaction”.
Consider “Cadherin-23 (Mus musculus), Q99PF4-1 E737V”, for which the “effect of a mutation on the interaction” value was “decreasing interaction”.
To “Cadherin-23 (Mus musculus), Q99PF4-1 R1060W” belongs “decreasing interaction”.
